One block for each binder: values may come before it.
Legend:
FcγRIIIa (CD16a Val158) = target: T1, FcγRIIIa (CD16a Val158) (UniProt P08637 17-254, limits assumed); test: flow cytometry, CHO cells stably expressing CD16a Val158, fluorescent anti-human IgG secondary, MFI (mean)
T1 construct: whole, on cells; allotype Val158 as printed
From the text: (§1) ALG.APV-210 contains mutations introduced to prevent interaction with Fcγ receptors (FcγR) that could lead to FcγR-mediated T-cell activation or ADCC, ADCP, CDC etc. Binding of ALG.APV-210 was therefore tested on CHO cell transfectants stably expressing the following FcγR: FcγRI (CD64), FcγRIIa (CD32a His131), FcγRIIb (CD32b), FcγRIIIa (CD16a Val158 and CD16a Phe158), and FcγRIIIb (CD16b). Untransfected CHO cells were used as negative control. A control human IgG1 molecule was used as a positive control. Different concentrations of ALG.APV-210 or control IgG1 were incubated with the FcγR-expressing cell lines, washed, and labeled with a secondary anti-human IgG reagent. Binding of ALG.APV-210 and the control IgG1 was detected by flow cytometry.

human 5T4 on cells = target: T2, human 5T4 on cells (human, UniProt Q13641 32-420); test: flow cytometry, H1975 cells, PE goat anti-human Fc
T2 construct: also called TPBG; hu5T4
T2 sequence: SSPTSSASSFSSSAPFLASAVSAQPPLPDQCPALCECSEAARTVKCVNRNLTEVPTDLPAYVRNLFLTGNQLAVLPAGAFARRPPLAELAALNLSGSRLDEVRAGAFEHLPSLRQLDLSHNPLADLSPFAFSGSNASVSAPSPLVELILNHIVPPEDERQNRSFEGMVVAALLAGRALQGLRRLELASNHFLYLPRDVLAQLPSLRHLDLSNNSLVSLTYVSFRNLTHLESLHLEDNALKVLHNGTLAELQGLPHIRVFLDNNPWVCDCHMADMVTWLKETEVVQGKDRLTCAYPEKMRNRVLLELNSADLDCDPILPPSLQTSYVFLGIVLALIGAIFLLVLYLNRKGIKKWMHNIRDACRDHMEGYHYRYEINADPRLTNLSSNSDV
Experimental: A 3-fold titration of ALG.APV-210 construct (ranging from 100 nM to 0.14 nM) was incubated with the human 5T4-expressing cell lines for 40 minutes in FACS buffer at 4° C., washed 3 times, and detected with PE-labeled, goat-anti-human Fc secondary antibody (Jackson ImmunoResearch). Binding of ALG.APV-210 was detected by flow cytometry. All samples were run in duplicates. Nonlinear regression analysis to determine EC₅₀ values was performed in GraphPad Prism 6® graphing and statistics software.

FcγRIIIb (CD16b) = target: T3, FcγRIIIb (CD16b) (UniProt O75015 17-200, limits assumed); test: flow cytometry, CHO cells stably expressing CD16b, fluorescent anti-human IgG secondary, MFI (mean)
T3 construct: whole, on cells
From the text: as §1

[1] = target: T4, cynomolgus CD137 on cells (cynomolgus macaque, UniProt A9YYE7 24-254); test: flow cytometry, CD8 T cells gated from CD3-stimulated cynomolgus PBMC, biotinylated antibody + streptavidin-APC, exp 2, n=3 donors
T4 construct: whole, on cells; also called CHO-K1/cynomolgus CD137 cell line; cynomolgus monkey CD137 on CD3-stimulated primary CD8 T cells
Experimental: Following 48 h of incubation with or without CD3, human and cynomolgus PBMC were harvested, pooled, recounted and diluted in FACS buffer (PBS+0.5% BSA, 0.05% NaN₃) to a concentration of 5×10⁶ cells/mL. 50 μL (0.25×10⁶ cells) of cell solution was added to a 96-well FACS staining plate (Falcon #351190). Following 10 min of Fc-blocking in RT using Beriglobin (hIgG, 200 μg/mL), cells were washed in FACS buffer and then incubated for 1 h in 4° C. with 100 μL of the biotinylated ALG.APV-210 or negative control. […] Cells were analysed for ALG.APV-210 binding using flow cytometry by gating on viable, single cells expressing CD3 and CD8. MFI values (FMO subtracted) from 2 independent experiments as well as normalized pooled data from 2 experiments and EC₅₀-values were determined and plotted using GraphPad Prism 7, non-linear regression log (agonist) vs. normalized response—variable slope, n=6 donors/group.
In ELISA tests, the binding of biotinylated ALG.APV-210 to CD137 was similar to that of the non-biotinylated ALG.APV-210 (0.6 nM vs. 0.7 nM). The binding (EC₅₀) of the biotinylated ALG.APV-210 to its immunomodulatory target CD137 when expressed on activated primary human and cynomolgus CD8 T cells from CD3 stimulated PBMC was assessed and compared between the two species as well as to unstimulated cells. […]

T3 sequence (O75015 17-200 limits assumed): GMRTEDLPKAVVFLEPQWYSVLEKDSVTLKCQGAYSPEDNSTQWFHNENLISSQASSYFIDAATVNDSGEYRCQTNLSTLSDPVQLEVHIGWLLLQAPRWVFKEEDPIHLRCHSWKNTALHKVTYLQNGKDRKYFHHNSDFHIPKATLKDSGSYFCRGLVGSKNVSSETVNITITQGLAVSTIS
T1 sequence (P08637 17-254 F176V limits assumed): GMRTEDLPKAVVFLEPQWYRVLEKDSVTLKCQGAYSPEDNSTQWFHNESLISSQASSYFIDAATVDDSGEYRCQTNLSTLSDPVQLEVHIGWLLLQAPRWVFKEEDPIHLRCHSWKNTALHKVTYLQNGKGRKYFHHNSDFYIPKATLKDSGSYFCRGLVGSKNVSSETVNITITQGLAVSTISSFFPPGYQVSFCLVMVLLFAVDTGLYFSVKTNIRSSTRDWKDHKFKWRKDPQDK
T4 sequence (A9YYE7 entry or part of it): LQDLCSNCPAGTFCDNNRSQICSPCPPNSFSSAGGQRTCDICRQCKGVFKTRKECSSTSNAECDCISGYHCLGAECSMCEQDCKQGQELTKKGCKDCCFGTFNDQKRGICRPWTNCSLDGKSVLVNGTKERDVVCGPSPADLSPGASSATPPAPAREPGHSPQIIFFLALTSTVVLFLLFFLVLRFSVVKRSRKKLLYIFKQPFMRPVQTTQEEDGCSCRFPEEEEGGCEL

binding result (FcγRIIIa (CD16a Val158)): no binding (tested: 1000 nM)
EC50 (human 5T4 on cells): 20 nM
binding result (FcγRIIIb (CD16b)): no binding (tested: 1000 nM)
B1: ALG.APV-210 (bispecific antibody)
chain: EVQLLESGGGLVQPGGSLRLSCAASGFTFSHGSMYWVRQAPGKGLEWVSSISSGSGSTYYADSVKGRFTISHDNSKNTLYLQMNSLRAEDTAVYYCARSSYYGSYYSIDYWGQGTLVTVSSGGGGSGGGGSGGGGSGGGGSDIQMTQSPSSLSASVGDRVTITCRASQSISSYLNWYQQKPGKAPKLLIYAASSLQSGVPSRFSGSGSGTDFTLTISSLQPEDFATYYCQQYYDNLPTFGQGTKLEIKEPKSSDKTHTCPPCPAPEAAGAPSVFLFPPKPKDTLMISRTPEVTCVVVDVSHEDPEVKFNWYVDGVEVHNAKTKPREEQYNSTYRVVSVLTVLHQDWLNGKEYKCAVSNKALPAPIEKTISKAKGQPREPQVYTLPPSRDELTKNQVSLTCLVKGFYPSDIAVEWESNGQPENNYKTTPPVLDSDGSFFLYSKLTVDKSRWQQGNVFSCSVMHEALHNHYTQKSLSLSPGSGGGGSGGGGSGGGGSPSEVQLLESGGGLVQPGGSLRLSCAASGFTFSSYAMSWVRQAPGKCLEWVSAISGSGGSTYYADSVKGRFTISRDNSKNTLYLQMNSLRAEDTAVYYCARYYGGYYSAWMDYWGQGTLVTVSSGGGGSGGGGSGGGGSGGGGSDIQMTQSPSSLSASVGDRVTITCRASQSISSFLNWYQQKPGKAPKLLIYAASSLQSGVPSRFSGSGSGTDFTLTISSLQPEDSATYYCQQTYGYLHTFGCGTKLEIKR
notes: Optimized ADAPTIR scFv-Fc-scFv homodimer with stabilizing disulfide in the 1210 scFv; also called 5T4-CD137 bispecific antibody

B2: biotinylated ALG.APV-210 (bispecific antibody)
chain: B1 chain
notes: also called ALG.APV-210 (biotinylated for FACS detection)
EC50 (read off the curve) [1]: ~0.2 nM

Source: US20190016816A1 (APTEVO RESEARCH AND DEVELOPMENT, published 2019)
